We go through 3 proteins from article PMC9599917, “Reshaping the Binding Pocket of the Neurotransmitter:Solute Symporter (NSS) Family Transporter SLC6A14 (ATB^0,+) Selectively Reduces Access for Cationic Amino Acids and Derivatives” (Biomolecules, 2022).

Holding throughout (assay type): cell-based, Homo sapiens
Substrate in data set [1]: N=C(N)NCCC[C@H](N)C(=O)O
Description: two-electrode voltage clamp in oocytes (Km); competition with [3H]serine uptake. Conditions: Na+ and Cl- substrate binding pocket, competes with serine; lost in V128F. In general terms: Two-electrode voltage clamp is typically applied to oocytes expressing channels or transporters.

Substrate in data set [2]: N[C@@H](CO)C(=O)O
Description: two-electrode voltage clamp in oocytes (Km); radiolabelled uptake. To be noted: Na+ and Cl-.

Substrate in data set [3]: N=C(N)NCCC[C@H](N)C(=O)O
In words: two-electrode voltage clamp in oocytes (Km). To be noted: Na+ and Cl-.

Substrate in data set [4]: N[C@@H](CO)C(=O)O
In words: two-electrode voltage clamp in oocytes (Km); radiolabelled uptake. To be noted: Na+ and Cl-. An excerpt:
two-electrode voltage clamp in oocytes (Km); radiolabelled uptake on SLC6A14 (ATB0,+) | In SLC6A14-V128I, the affinity for serine increased by five-fold
The source holds these as a separate data set.

B1: SLC6A14 (ATB0,+) (Homo sapiens) (protein)
chain: MDKLKCPSFFKCREKEKVSASSENFHVGENDENQDRGNWSKKSDYLLSMIGYAVGLGNVWRFPYLTYSNGGGAFLIPYAIMLALAGLPLFFLECSLGQFASLGPVSVWRILPLFQGVGITMVLISIFVTIYYNVIIAYSLYYMFASFQSELPWKNCSSWSDKNCSRSPIVTHCNVSTVNKGIQEIIQMNKSWVDINNFTCINGSEIYQPGQLPSEQYWNKVALQRSSGMNETGVIVWYLALCLLLAWLIVGAALFKGIKSSGKVVYFTALFPYVVLLILLVRGATLEGASKGISYYIGAQSNFTKLKEAEVWKDAATQIFYSLSVAWGGLVALSSYNKFKNNCFSDAIVVCLTNCLTSVFAGFAIFSILGHMAHISGKEVSQVVKSGFDLAFIAYPEALAQLPGGPFWSILFFFMLLTLGLDSQFASIETITTTIQDLFPKVMKKMRVPITLGCCLVLFLLGLVCVTQAGIYWVHLIDHFCAGWGILIAAILELVGIIWIYGGNRFIEDTEMMIGAKRWIFWLWWRACWFVITPILLIAIFIWSLVQFHRPNYGAIPYPDWGVALGWCMIVFCIIWIPIMAIIKIIQAKGNIFQRLISCCRPASNWGPYLEQHRGERYKDMVDPKKEADHEIPTVSGSRKPE
notes: human SLC6A14 expressed in Xenopus laevis oocytes
Take B1: the Michaelis constant (Km) stood at 91 ± 11 µM in data set [1] and 106 ± 5 µM in data set [2].

B2: SLC6A14 (ATB0,+) (Homo sapiens; V128F) (protein)
chain: MDKLKCPSFFKCREKEKVSASSENFHVGENDENQDRGNWSKKSDYLLSMIGYAVGLGNVWRFPYLTYSNGGGAFLIPYAIMLALAGLPLFFLECSLGQFASLGPVSVWRILPLFQGVGITMVLISIFFTIYYNVIIAYSLYYMFASFQSELPWKNCSSWSDKNCSRSPIVTHCNVSTVNKGIQEIIQMNKSWVDINNFTCINGSEIYQPGQLPSEQYWNKVALQRSSGMNETGVIVWYLALCLLLAWLIVGAALFKGIKSSGKVVYFTALFPYVVLLILLVRGATLEGASKGISYYIGAQSNFTKLKEAEVWKDAATQIFYSLSVAWGGLVALSSYNKFKNNCFSDAIVVCLTNCLTSVFAGFAIFSILGHMAHISGKEVSQVVKSGFDLAFIAYPEALAQLPGGPFWSILFFFMLLTLGLDSQFASIETITTTIQDLFPKVMKKMRVPITLGCCLVLFLLGLVCVTQAGIYWVHLIDHFCAGWGILIAAILELVGIIWIYGGNRFIEDTEMMIGAKRWIFWLWWRACWFVITPILLIAIFIWSLVQFHRPNYGAIPYPDWGVALGWCMIVFCIIWIPIMAIIKIIQAKGNIFQRLISCCRPASNWGPYLEQHRGERYKDMVDPKKEADHEIPTVSGSRKPE
notes: human SLC6A14-V128F expressed in Xenopus laevis oocytes
Consider B2, for which the Michaelis constant (Km) in data set [2] is reported as 142 ± 11 µM.

B3: SLC6A14 (ATB0,+) (Homo sapiens; V128I) (protein)
chain: MDKLKCPSFFKCREKEKVSASSENFHVGENDENQDRGNWSKKSDYLLSMIGYAVGLGNVWRFPYLTYSNGGGAFLIPYAIMLALAGLPLFFLECSLGQFASLGPVSVWRILPLFQGVGITMVLISIFITIYYNVIIAYSLYYMFASFQSELPWKNCSSWSDKNCSRSPIVTHCNVSTVNKGIQEIIQMNKSWVDINNFTCINGSEIYQPGQLPSEQYWNKVALQRSSGMNETGVIVWYLALCLLLAWLIVGAALFKGIKSSGKVVYFTALFPYVVLLILLVRGATLEGASKGISYYIGAQSNFTKLKEAEVWKDAATQIFYSLSVAWGGLVALSSYNKFKNNCFSDAIVVCLTNCLTSVFAGFAIFSILGHMAHISGKEVSQVVKSGFDLAFIAYPEALAQLPGGPFWSILFFFMLLTLGLDSQFASIETITTTIQDLFPKVMKKMRVPITLGCCLVLFLLGLVCVTQAGIYWVHLIDHFCAGWGILIAAILELVGIIWIYGGNRFIEDTEMMIGAKRWIFWLWWRACWFVITPILLIAIFIWSLVQFHRPNYGAIPYPDWGVALGWCMIVFCIIWIPIMAIIKIIQAKGNIFQRLISCCRPASNWGPYLEQHRGERYKDMVDPKKEADHEIPTVSGSRKPE
notes: human SLC6A14-V128I expressed in Xenopus laevis oocytes
For B3, the Km in data set [3] came out at 60 ± 8 µM; in data set [4], 20 ± 3 µM.

Usually Km stands for the concentration of substrate that gives half-maximal velocity.
